Consider 1 substance from PMC3592467.

In this assay the target is CDC5L–GFP (UniProt Q99459). As to the kind of experiment: affinity purification with mass spectrometry.
Sequence of CDC5L–GFP (Q99459 whole entry): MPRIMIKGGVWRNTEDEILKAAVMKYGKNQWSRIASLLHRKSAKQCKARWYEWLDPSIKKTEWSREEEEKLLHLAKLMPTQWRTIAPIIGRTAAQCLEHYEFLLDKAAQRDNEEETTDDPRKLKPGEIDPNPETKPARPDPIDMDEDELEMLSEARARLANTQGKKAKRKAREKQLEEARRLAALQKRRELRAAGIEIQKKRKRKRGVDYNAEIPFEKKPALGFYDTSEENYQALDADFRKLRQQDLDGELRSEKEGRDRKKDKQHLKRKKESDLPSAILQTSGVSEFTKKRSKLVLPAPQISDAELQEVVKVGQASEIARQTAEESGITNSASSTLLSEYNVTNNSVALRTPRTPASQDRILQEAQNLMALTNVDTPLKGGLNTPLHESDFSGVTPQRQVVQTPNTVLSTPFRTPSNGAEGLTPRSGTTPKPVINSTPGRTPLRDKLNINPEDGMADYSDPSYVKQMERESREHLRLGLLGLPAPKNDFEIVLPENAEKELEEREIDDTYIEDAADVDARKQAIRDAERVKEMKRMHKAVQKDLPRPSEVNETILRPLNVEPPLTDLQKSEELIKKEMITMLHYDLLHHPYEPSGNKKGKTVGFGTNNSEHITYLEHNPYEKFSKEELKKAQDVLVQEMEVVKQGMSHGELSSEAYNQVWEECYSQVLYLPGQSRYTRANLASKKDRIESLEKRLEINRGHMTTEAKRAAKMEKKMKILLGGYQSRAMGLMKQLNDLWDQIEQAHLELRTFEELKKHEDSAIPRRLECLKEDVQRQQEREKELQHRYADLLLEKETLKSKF

Sequence of HSP70 (P11142 whole entry): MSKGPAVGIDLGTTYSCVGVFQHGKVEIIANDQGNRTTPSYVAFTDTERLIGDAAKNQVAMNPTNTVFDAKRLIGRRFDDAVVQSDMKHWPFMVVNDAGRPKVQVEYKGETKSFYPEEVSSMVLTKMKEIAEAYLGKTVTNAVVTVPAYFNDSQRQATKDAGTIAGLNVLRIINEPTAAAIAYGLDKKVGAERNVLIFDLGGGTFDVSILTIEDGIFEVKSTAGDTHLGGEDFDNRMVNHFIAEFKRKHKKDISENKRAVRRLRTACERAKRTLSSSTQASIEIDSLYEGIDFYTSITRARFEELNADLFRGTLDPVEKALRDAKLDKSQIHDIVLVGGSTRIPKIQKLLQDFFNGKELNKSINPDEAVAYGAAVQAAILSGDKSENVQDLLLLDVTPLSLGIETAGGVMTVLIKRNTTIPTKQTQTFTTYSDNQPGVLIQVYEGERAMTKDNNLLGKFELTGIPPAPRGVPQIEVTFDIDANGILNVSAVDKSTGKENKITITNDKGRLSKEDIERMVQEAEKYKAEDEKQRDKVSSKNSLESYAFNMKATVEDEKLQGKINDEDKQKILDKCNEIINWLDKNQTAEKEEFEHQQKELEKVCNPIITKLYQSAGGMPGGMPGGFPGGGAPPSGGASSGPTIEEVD

Substance “HSP70 (from UniProt P11142 1-646) (natural protein)” showed a stoichiometry N (relative to CDC5L) of 0.2 and a stoichiometry with CDC5L as a dimer (CDC5L 2) (per CDC5L dimer) of 0.4.
